Laboratory results: the nanobody polyreactivity screen of Harvey et al. (2022)

Assay: yeast display, Sf9 membrane polyspecificity reagent, FACS + sequencing; frameworks hold sequencing errors
In short: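 Polyreactivity labels are assigned by the sorting gate from which each nanobody was recovered. The gates were low and high (top ~1%), set on anti-HA fluorescence for expression and streptavidin fluorescence for reagent binding. Before sorting, galactose-induced (36–48 hours) yeast display cells were stained for 1 hour at 4 °C with 10% biotinylated, detergent-solubilized Sf9 membrane reagent.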

Q: For “QVQLVESGGGLVQAGGSLRLSCAASGRTFTSYAMGWYRQAPGKERELVAAISGSGSRTYYADSVKGRFTISRDNAKNTVYLQMNSLKPEDTAVYYCAVSYTTYYHRYYYWGQGTQVTVSS”, which “polyreactivity (PSR sort gate)” value is on record?
A: high polyreactivity

Q: Which “polyreactivity (PSR sort gate)” value does the source give for “QVQLVESGGGLVQAGGSLRLSCAASGSIFPYNAMGWYRQAPGKERELVAAISISGGSTYYADSVKGRFSISRDNAKNTVYLQMNSLKPEDTAVYYCAARQSLSSAFDYWGQGTQVTVSS” here?
A: low polyreactivity

Q: With “QVQLVETGGRLVQAGGSLRLSSAASGSIFYPYAMGWYRQAPGKEREWVATITISGGRTYYADSVKGRFTISRDNAKNTVYLQMNSLKPEDTAFYYCATEYAYGAFLYDYWGQGTQVTVSW” as the sequence, how does the “polyreactivity (PSR sort gate)” value read?
A: low polyreactivity

Q: For “QVQLVESAGGLVQAGGSLRLSCAASGSIIYYNAMGWYRQAPGKERELVAAITGSGGSTYYADSVKGRFTISRDNAKNTVYLQMNSLKPEDTAVYYCAADYSLYGWWFRNDYWGQGTQVTVSS”, which “polyreactivity (PSR sort gate)” value is on record?
A: low polyreactivity

Q: With “QVQLVESGGGLVQAGGSLRLSCAASGSIFRLYAMGWYRPAPGKERELVAAISRRGGSTNYADSVKGRFTISRDNAKNTVNLQMNSLKPEDTAVYYCNAVSKRSRYDYWGQGTQVTVSS” as the sequence, how does the “polyreactivity (PSR sort gate)” value read?
A: high polyreactivity

Q: For “QVQLVESGGGLVQAGGSLRLSCAASGSTFPGNAMGWYRPAPGKERELVARINDGADTNYADSVKGRFTISRDNAKNTVYLQMNSLKPEDTAVYYCAKPYYDGRTHFDSWGQGTQVTVSS”, which “polyreactivity (PSR sort gate)” value is on record?
A: low polyreactivity

Q: Which “polyreactivity (PSR sort gate)” value does the source give for “QVQLVESGGGLVQAGGSLRLSCAASGSILLYYSMGWYIQAPGKERELVARISITRDSTYYADSVKGRFTISRDNAKNTVYLQMYSLNPEDTAVYFCAADPVLHYYPSYYTGALDYYWGQGTQVTVSS” here?
A: low polyreactivity

Q: With “QVQLVESGGGLVQAGGSLRLSCAASGSTFYFYAMGWYRQAPGKERELVAAITYSGDRTRYADSVKGRFTISRDNAKNTVYLQMNSLKPEDTAVYYCAARYVGARNAYRMGYWGQGTQVTVSS” as the sequence, how does the “polyreactivity (PSR sort gate)” value read?
A: high polyreactivity

Q: For “QVQLVESGGGLVQAGGSLRLSCAASGLTLYRYALGWYRQAPGKERELVAAISWGGGSTYYADSVKGRFTISRDNAKNTVYLQMNSLKPEDTAVYYCAAGRLLYIPRYYYWGQGTQVTVSS”, which “polyreactivity (PSR sort gate)” value is on record?
A: high polyreactivity

Q: Which “polyreactivity (PSR sort gate)” value does the source give for “QVQLVESGGGLVQAGGSLRLSCAASGSTFFYNAMGWYRQAPGKERESTNYADSVKGRFTISRDNAKNTVYLQMNSLKPEDTAVYYSAKDRSYYRKFSSYRLHDYWGHGTQVTVSS” here?
A: low polyreactivity

Q: With “QVQLVESGGGLVQAGGSLRLSCAASGIIFTSYVMGWYRQAPGKERELVAAISSDGGSTYYADSVKGRFTISRDNAKNTVYLQMNSLKPEDTAVYYCAVDWLEIGDTGFDYWGQGTQVTVSS” as the sequence, how does the “polyreactivity (PSR sort gate)” value read?
A: low polyreactivity

Q: With “QVQLVESGGGLVQAGGSLRLSCAASGFIFDFYTMGWYRQAPGKERELVAAITNGGSTYYADSVKGRFTISRDNAKNTVYLQMNSLKPEDTAVYYCAAYYRSRHHGYDSWGQGTQVTVSS” as the sequence, how does the “polyreactivity (PSR sort gate)” value read?
A: low polyreactivity

Q: With “QVQLVESGGGLVQAGGSLRLSCAASGRTFGKYAMGWYRQAPGKERELVAAITTRVVITYYADSVKGRFTISRDTAKNTVYLQMNSLKPEDTAVYYCAADPEKIYRPFNHYYYWGQGTQVTVSS” as the sequence, how does the “polyreactivity (PSR sort gate)” value read?
A: low polyreactivity

Q: With “QVQLVESGGGLVQAGGSLRLSCAASGFTFSSYAMGWYRQAPGKERELVAAITTRGGTFYADSVKGRFTISRDNAKNTVYLQMNSLKPEDTAVYYCAARRVSGRGYWGQGTQVTVSS” as the sequence, how does the “polyreactivity (PSR sort gate)” value read?
A: high polyreactivity

Q: Which “polyreactivity (PSR sort gate)” value does the source give for “QVQLVESGGGLVQAGGSLRLSCAASGGIFGWYAMGWYRQAPGKERELVATITWRGGRTYYADSVKGRFTISRDNAKNTVYLQMNSLKPEDTAVYYCNAEWLWYDAGYRYTIRDSWGQGTQVTVSS” here?
A: low polyreactivity

Q: Which “polyreactivity (PSR sort gate)” value does the source give for “QVQLVESGGGLVQAGGSLRLSCAASGRTFLTNAMGWYRQAPGKERELVAAITSSGGNTYYADSVKGRFTISRDNAKNTVYLQMNSLKPEDTAVYYCAAPGYVWYGGRWVYRYYYWGQGTQVTVSS” here?
A: high polyreactivity

Q: For “QVQLVESGGGLVQAGGSLRLSCAAYGSTLTWNAMGWYRQAPGKERELVAAITGVGSTNYADSVKGRFTISRDNAKNTVYLQMNSLKPEDSAVYYCAAQGSGSTLYEYWGQGTQVTVSS”, which “polyreactivity (PSR sort gate)” value is on record?
A: low polyreactivity

Q: With “QVQLVESGGGLVQAGGSLRLSCAASGRIFVYNAMGWYRQAPGKERELVASISSTTSTYYADSVKGRFTISRDNAKNTVYLQMNSLKPEDTAVYYCNARYQTRYGRYWYKVRGMDYWGQGTQVTVSS” as the sequence, how does the “polyreactivity (PSR sort gate)” value read?
A: high polyreactivity

Q: Which “polyreactivity (PSR sort gate)” value does the source give for “QVQLGESGGGLVQAGGSLRLSCAASGRIYAAYAMGWSRQAPGKERELVAAISGSGGSTSYADSVKGRFTISRDNAKNTVYLQMNSLKPEYTAVYYCAADYSYLAEFDYWGQGTQVTVSS” here?
A: low polyreactivity

Q: Which “polyreactivity (PSR sort gate)” value does the source give for “QVQLVESGGGLVQAGGSLRLSCAASGSTFPDYAMGWYRQAPGKERELVAAISRRGVRTYYADSVKGRFTISRDNAKNTVYLQMNSLKPEDTAVYYCAAPSLLSGSDMDYWGQGTQVTVSS” here?
A: high polyreactivity

Q: Which “polyreactivity (PSR sort gate)” value does the source give for “QVQLVESGGGLVQAGGSLRLSCAASGSTFVYNAMGWYRQAPGKERELVAAISRGGGITYYADSVKGRFTISRDNAKNTVYLQMNSLKPEDTAVYYCNKSRYKSYSYDYWGQGTQVTVSS” here?
A: high polyreactivity

Q: With “QVQLVESGGGLVQAGGSLRLSCAASGITCSYYTIGWYRQATGKEWELVATISQSSGSTYYADSVKGRFTISRDNAKNTVYLQINTLKPEDTAVYYCKARRDYEWVSWNVVDDYWGQGTQVTVSS” as the sequence, how does the “polyreactivity (PSR sort gate)” value read?
A: high polyreactivity

Q: Which “polyreactivity (PSR sort gate)” value does the source give for “QVQLVDSGGGLVQAGGSLRLSCAASGSTFSVYAMVWYRQAPGKERELVAAISKRGTSTYYADSLKGRFTISRDYAKNTLYLQKNSLKPEDTAVYYCAAEAYRPSPFYYWGQGTQVTFSS” here?
A: high polyreactivity

Q: For “QVHLVESGGGLVQAGCSLRLSCAASGSIFYRYAMGWYRQEPGKECELVAAIRTRGGTYYADSVKGRFTISRDNAKNTVYLQIKSLKPEDTAVYYCNAGYGTWYLWYEYWGQGTQVTVSS”, which “polyreactivity (PSR sort gate)” value is on record?
A: high polyreactivity

Q: With “QVQLVESGGGLVQAGGSLRLSCAASGRTFKRYAMGWYRQAPGKERELVARITYSGARTYYADSVKGRFTISRDNAKNTVYLQMNSLKPEDTAVYYCAAQQYWTSQYFRSATFDYWGQGTQVTVSS” as the sequence, how does the “polyreactivity (PSR sort gate)” value read?
A: high polyreactivity

Q: With “QVQLVESGGGLVQAGGSLRLSCAASGSTFDPYAMGWSRQAPGKEREMVAAISTSVGGTYYADSVKGRFTISRDYAKNTVNLQMNSLKPEDTAVYYCAVDYSDVQAYTSNEEDYWGQGTQVTVSS” as the sequence, how does the “polyreactivity (PSR sort gate)” value read?
A: low polyreactivity

Q: Which “polyreactivity (PSR sort gate)” value does the source give for “QVQLGESGGGLVQAGGSLRLSCAASGSTFYRYAMGWYRQAPGKERELVAAITRGGGNTYYADSVKGRFTISRDNAKNTVYLQMNSLKPEDTAVYYCNTDPTLRSRVGIWGFDYWGQGTQVTVSS” here?
A: high polyreactivity

Q: For “QVQLVESGGGLVQAGGSLRLSCAASGRIFRYYARGWYRQAPGKEMELVAAISGSGGSTYYADSVKGRFTISRDNAQKTVYLQIHCLKPEDTAVYSCNARYRIPSGEGDHWGQGTQVTVSS”, which “polyreactivity (PSR sort gate)” value is on record?
A: low polyreactivity

Q: Which “polyreactivity (PSR sort gate)” value does the source give for “QVQLQESGGGLVQAGGSLRPSCAASGNIFVPFKMGWYRLAPGKERELVASINRGSTTNYADSVKGRFTISRDNAKNTVYLQMISLKPEDTAVYYCAAIAYPDIPTYLDYDSDYFYWDQGTQVTVSS” here?
A: high polyreactivity

Q: For “QFQIVDSLEGLVQEAGTLRLSSAASGSIFYRYAKGGYRQAPRKERELVATITSSGGRTYYADSVKGRFTISRDNAKNTVYLQMNSLKPEDTAVNYCKPRDWGRTRGGGYPWLYRYDYWGQGTQVTVSS”, which “polyreactivity (PSR sort gate)” value is on record?
A: low polyreactivity

Q: For “QVQLVESGGGLVQAGGSLRLSCAASGFTFVYYAMGWYRQAPGKERELVATISGNGGRTYYADSVKGRFTISRDNAKNTVYLQMNSLIPDDTAVYYCATDVGFGRKQRPHRPGYGYWGQGTLVTVSS”, which “polyreactivity (PSR sort gate)” value is on record?
A: low polyreactivity

Q: With “QVQLVESGGGLVQAGGSLRLSCAASGSIFYYYAMGWYRQAPGKERELVAAISDDAITYYADSVKGRFTISRDNAKNTVYLQMNSLKPEDTAVYYCAAELYYPVGFDYWGQGTQVTVSS” as the sequence, how does the “polyreactivity (PSR sort gate)” value read?
A: high polyreactivity

Q: Which “polyreactivity (PSR sort gate)” value does the source give for “QVQLVESGGGLVHAGGSLRLSCAASGGTLYRYAMGWYRQAPGKERELVAGISSSGGRTYYADSVKGRFTISRDNAKNTVYLQMNSLKPEDTAVYYCAKYWVSSYDYWGQGTQVTVSS” here?
A: high polyreactivity

Q: With “QDQLGESGGGLVQAGGRLRLSCAASGFIIWNYGMGWYRQPPGKERELVAAISSGGTITKYADSVKGRFTISRDNAKNTVYLQMNSLKPEDTAVYYWAARWGVRAGYATFDYWGQGTQVTVSS” as the sequence, how does the “polyreactivity (PSR sort gate)” value read?
A: high polyreactivity

Q: For “QVQLVESGGGLVQAGGTLRLSCAASGIILSRYAMGWYIQAPGKERELVAAITRTTSTSYADSVKGRFTISRDNAKNTFYLQMNILKTEDTEVYYCAAVHYGGTAYYYWGQGTQVNVSS”, which “polyreactivity (PSR sort gate)” value is on record?
A: high polyreactivity

Q: With “QVQLVESGGRLVQAGGSLRLSCAASGFIIVFYDMGWYRQAPGKERELVAGITRNDGSTYYADSVKGRFKISRDNAKNTVYLQMNSLKPEDTAVYYCAADRVRRNDKLAYDYWGQGTQVTVSS” as the sequence, how does the “polyreactivity (PSR sort gate)” value read?
A: low polyreactivity

Q: Which “polyreactivity (PSR sort gate)” value does the source give for “QVQLVESGGGLVHAGGSLRLSCAASGSTYIFYAMGWYRQAPGKERELVPAITGGGSTYYADSVKGRFTISRDNAKNTVYLQMNSLKPEDTAVFYCARAEPYYSKSFSLGGYGYWGQGTKVTVSS” here?
A: low polyreactivity

Q: For “QVQLVESGGGLVQAGGSLRLSCAASGSIFAWYGMGWYRPAPGKERELVAAISTAGSTNYADSVKGRFTISRDNAKNTVYLQMNSLKPEDTAVYYCAKKSSWYYPERFDYWGQGTQVTVSS”, which “polyreactivity (PSR sort gate)” value is on record?
A: low polyreactivity

Q: With “QVQLVESGGGLVQAGGSLRLSCAASGSIFGGYAMGGYRQAPGKERELFARITDRGGSTDYADSVKGRFTISRDNAKNTVYLQMNRLKPEDTAVYYCAKRGDRYEKRPRDYWGQGTQVTVSS” as the sequence, how does the “polyreactivity (PSR sort gate)” value read?
A: low polyreactivity

Q: Which “polyreactivity (PSR sort gate)” value does the source give for “QVQLVESGGGLVQAGGSLRLSCAASGRIFTNNAMGWYRQAPGKERELVAAISKRGGSTYYADSVKGRFTISRDNAKNTVYLQMNSLKPEDTAVYYCNAREYIHWRGALGLFGSWGQGTQVTVSS” here?
A: high polyreactivity

Q: Which “polyreactivity (PSR sort gate)” value does the source give for “QVQLVESGGGLVQAGGSLRLSCAASGITVYVNVMGWYRQAPGKERELVAGISYSGGSTYYADSVKGRFTISRDNAKNTVYLQMNSLKPEDTAVYYCAADYWYYGSPVSRPYYYWGQGTQVTVSS” here?
A: high polyreactivity

Q: Which “polyreactivity (PSR sort gate)” value does the source give for “QVQLVESGGGLVQAGGSLRLSCAASGLIFGRYAMGWYRPAPGKERELVAAITNSDGDTYYADSVKGRFTISRDNAKNTVYLQMNSLKPEDTAVYYCNADDALRQTSDYNYWGQGTQVTVSS” here?
A: low polyreactivity

Q: For “QVQLVESGGGLVQAGGSLRLSCAASGSIFVYNAMGWYRQAPGKEREWVAGITLIGGSTYYADSVKGRFTISRDNAKNTVYLQMNSLKPEDTAVYYCNADVAPGIFYGYDSWGQGTQVTVSS”, which “polyreactivity (PSR sort gate)” value is on record?
A: low polyreactivity
